Measurements as given in IntAct's records for PubMed 18854158.

B1: Double-strand break repair protein rad32 (Schizosaccharomyces pombe (strain ATCC 38366 / 972)), Q09683 (parent)
chain: MPNDPSDMNNELHNENTIRILISSDPHVGYGEKDPVRGNDSFVSFNEILEIARERDVDMILLGGDIFHDNKPSRKALYQALRSLRLNCLGDKPCELELLSDTSLTTGDTAVCNINYLDPNINVAIPVFSIHGNHDDPSGDGRYSALDILQVTGLVNYFGRVPENDNIVVSPILLQKGFTKLALYGISNVRDERLYHSFRENKVKFLRPDLYRDEWFNLLTVHQNHSAHTPTSYLPESFIQDFYDFVLWGHEHECLIDGSYNPTQKFTVVQPGSTIATSLSPGETAPKHCGILNITGKDFHLEKIRLRTVRPFIMKDIILSEVSSIPPMVENKKEVLTYLISKVEEAITEANAQWYEAQGTVPVVENEKPPLPLIRLRVDYTGGYQTENPQRFSNRFVGRVANATDVVQFYLKKKYTRSKRNDGLYTSAVEDIKINSLRVESLVNEYLKTNRLECLPEDSLGEAVVNFVEKDDRDAIKECVETQLNKQINLLVKKRVTEENLEQEISSIINDLPKISTTKRKDYEELPEEVSETSINIAEHTPVLKHTSSLLDHHSPLATSSSEHEMEATPSPALLKKTNKRRELPSSLTKKNTRTPQRSKEVKKVPARKLSQSTKKSDKNTQSTLLFYDPSSTTEAQYLDNEDDEILDD
partner: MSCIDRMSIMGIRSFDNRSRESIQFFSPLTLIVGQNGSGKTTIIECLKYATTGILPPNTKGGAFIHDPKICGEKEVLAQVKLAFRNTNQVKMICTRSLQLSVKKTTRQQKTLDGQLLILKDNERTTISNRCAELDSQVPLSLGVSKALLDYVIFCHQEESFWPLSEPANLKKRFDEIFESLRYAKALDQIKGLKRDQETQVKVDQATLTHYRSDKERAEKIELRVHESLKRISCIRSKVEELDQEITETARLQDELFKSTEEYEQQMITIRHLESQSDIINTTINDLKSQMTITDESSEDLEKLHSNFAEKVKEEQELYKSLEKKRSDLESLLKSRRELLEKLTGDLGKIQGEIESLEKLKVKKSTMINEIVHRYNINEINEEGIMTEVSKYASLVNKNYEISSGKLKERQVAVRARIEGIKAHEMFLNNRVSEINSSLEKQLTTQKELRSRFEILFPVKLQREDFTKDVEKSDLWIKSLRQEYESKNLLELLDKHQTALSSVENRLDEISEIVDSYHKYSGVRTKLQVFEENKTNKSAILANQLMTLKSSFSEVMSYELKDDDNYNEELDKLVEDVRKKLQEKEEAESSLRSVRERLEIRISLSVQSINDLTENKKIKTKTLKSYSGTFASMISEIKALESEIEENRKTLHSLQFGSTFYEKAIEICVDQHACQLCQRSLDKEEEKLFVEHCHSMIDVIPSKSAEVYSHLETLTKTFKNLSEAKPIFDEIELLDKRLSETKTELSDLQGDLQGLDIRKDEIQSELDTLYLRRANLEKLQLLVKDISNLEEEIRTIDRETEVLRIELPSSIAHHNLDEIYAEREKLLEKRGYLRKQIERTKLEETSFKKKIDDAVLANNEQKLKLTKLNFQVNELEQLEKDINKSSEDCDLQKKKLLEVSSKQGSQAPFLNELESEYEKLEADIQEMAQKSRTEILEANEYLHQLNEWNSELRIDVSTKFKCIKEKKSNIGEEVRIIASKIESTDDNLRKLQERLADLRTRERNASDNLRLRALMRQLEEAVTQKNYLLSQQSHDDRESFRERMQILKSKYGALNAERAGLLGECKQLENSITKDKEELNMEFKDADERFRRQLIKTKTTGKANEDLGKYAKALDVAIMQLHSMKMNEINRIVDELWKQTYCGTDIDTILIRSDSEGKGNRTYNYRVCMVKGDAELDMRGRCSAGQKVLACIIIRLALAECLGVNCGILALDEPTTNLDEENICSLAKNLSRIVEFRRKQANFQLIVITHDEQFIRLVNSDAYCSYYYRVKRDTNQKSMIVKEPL
B2: Double-strand break repair protein rad32 (Schizosaccharomyces pombe (strain ATCC 38366 / 972)), Q09683 (parent)
chain: B1 chain
partner: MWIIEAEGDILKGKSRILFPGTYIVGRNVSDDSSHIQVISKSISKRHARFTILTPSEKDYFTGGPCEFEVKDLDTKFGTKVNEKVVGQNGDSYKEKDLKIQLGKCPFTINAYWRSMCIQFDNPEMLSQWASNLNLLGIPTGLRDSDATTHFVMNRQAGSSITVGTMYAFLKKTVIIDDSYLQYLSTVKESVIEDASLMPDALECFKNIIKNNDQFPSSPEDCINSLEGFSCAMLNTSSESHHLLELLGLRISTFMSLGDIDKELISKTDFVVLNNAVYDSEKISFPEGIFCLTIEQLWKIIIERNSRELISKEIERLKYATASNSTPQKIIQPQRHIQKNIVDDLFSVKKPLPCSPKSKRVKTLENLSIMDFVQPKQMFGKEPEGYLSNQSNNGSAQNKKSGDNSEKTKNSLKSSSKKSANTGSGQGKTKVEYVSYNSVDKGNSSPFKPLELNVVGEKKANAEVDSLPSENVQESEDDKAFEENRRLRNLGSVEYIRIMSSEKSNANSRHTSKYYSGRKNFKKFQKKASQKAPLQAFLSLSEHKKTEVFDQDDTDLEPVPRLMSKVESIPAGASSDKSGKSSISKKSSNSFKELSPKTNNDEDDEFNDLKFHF

Variants of: B1
Settings: with rad50_schpo rad50, Q9UTJ8

effect of a mutation on the interaction	Variant
decreasing interaction	L77K;L154D

Variants of: B2
Settings: with nbs1_schpo nbs1, O43070

effect of a mutation on the interaction	Variant
decreasing interaction	L77K;L154D
